± gives the uncertainty stated by the source.
Assay: amyloid nucleation score (Sup35N fusion, yeast selection) (log enrichment); library NNK3; higher = more nucleation; inactive = no reads after selection
Procedure, shortened: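 Growth for 7 days at 30°C on medium lacking adenine and uracil followed a 24-hour induction with 100 μM copper sulfate of psi-negative yeast expressing peptides of 20 random codons fused to Sup35N. Input and output plasmid inserts were sequenced with Illumina, and sequences with under 100 input reads were excluded. Nucleation score is the DiMSum log enrichment of output over input reads, centred on the mode score of non-aggregating sequences.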

Substance	amyloid nucleation score
KVGFLFDGLFIFGGR	inactive
KVIDGFLTLLSVNHRCKAWQ	inactive
KVIDGVDAMWCMKVFWV	inactive
KVTYFKSMMHYDNMQSSVRC	inactive
KWNRLLVMRLAVIECRARVA	0.033 ± 0.9
KWYIMCLVNILVEVIIFNYF	inactive
KWYQVGSVLKRIRLNILRG	-1.51 ± 2.4
KYDVGVYLYLLLPTNCRQQW	1.46 ± 0.12
KYGVLLRIHR	0.499 ± 0.72
KYHMFRWGLSC	inactive
KYKSVCVKFNEDLTG	inactive
KYLLLKRNARQRLHTVCHQA	inactive
KYMGAVFYIIHRTEERYF	0.874 ± 0.13
KYSTSPNFKIIQVLMGLPLR	inactive
KYVVSYLGFKFGWKHYSKYY	inactive
KYVYYSFLERSFDYMYFSRQ	inactive
KYYINVVNRRYLNYFGTWLF	0.617 ± 0.12
LAAICYEVFGCGTWMGC	inactive
LAFADRITGYGWSGTVRMMW	inactive
LAKHSFSFGVYCNSRNSVMY	inactive
LASFEIRNREY	0.519 ± 0.33
LATRWRCCSCNAWS	-0.593 ± 1.1
LAVGRTWMLVANWDSMGQIV	inactive

Substance	amyloid nucleation score
LAYVHMGGIARWLC	inactive
LCCAPNADFWIN	inactive
LCCGKCRPGPKFCTKISHTN	inactive
LCCSCWLLIDCQWKDGYLEG	1.91 ± 0.079
LCIPVDFVGGTIRLCVL	inactive
LCKSMRNDSLDYFLHCPGML	inactive
LCLFRTRVIGVS	inactive
LCLHERCDALSFDDNPYSTR	inactive
LCMFPLIWFILLFRFFKLWG	inactive
LCMQFNLVWRYDRRETINSE	1.16 ± 0.11
LCRKPFDVGLGRV	inactive
LCRSGIFKSYWNITMFFKFL	inactive
LCTLMCTQFNYFVSETWLVP	2.25 ± 0.093
LCTLSCFAICD	0.74 ± 0.18
LCVMCCATSFSHVCILIYRI	inactive
LCVYTYTSTHAVFFIVFDSR	inactive
LCWTVVIHVRTAVRIWLTSR	inactive
LCYAWRSGSNTYMHMMNWSM	inactive
LDAVNF	inactive
LDFRLFGFPDKNEHYGGEYK	inactive
LDFRSVTDVWSCYI	inactive
LDGRYKYILFLLPLCRW	inactive
LDKAHHHLETAKLLLAWGVI	inactive

Substance	amyloid nucleation score
LDKFHCRFYMQNSN	inactive
LDLLHFGYFIYFDEL	inactive
LDMQEPPVNAVRHYLSL	inactive
LDRSVMIRFGLELMRWSSGG	0.356 ± 0.35
LDTSD	inactive
LDTYTRNYLD	inactive
LDYNVRVGIVSRFTQLTHVN	inactive
LDYPNVCMDFLSKVFRDSVR	inactive
LEFSYPCRWA	inactive
LEGLMANVMRGFRSVVPATW	inactive
LEGSKKSDSSLARSWYFFET	inactive
LELGTLTNRSLCFCEILPFC	inactive
LESLPINNEFSMQSYTRIVI	inactive
LFCLLLHNIGKFRYMFY	inactive
LFDALYLEVTLGSSMVYVKN	inactive
LFELDKLNRVHLNGVMGVII	inactive
LFFSRS	inactive
LFFYFLEPR	inactive
LFGQVVGVDFFNWWCFEMHK	inactive
LFLKFDNSSWLMLKVMDTNI	0.961 ± 0.19
LFLRDNF	inactive
LFLSMGYLDGFYPIRSISYL	inactive
LFMINLDPASMVHMTPCFTN	inactive

Substance	amyloid nucleation score
LFMLIFGCVHARNYFKPKKV	inactive
LFNLL	inactive
LFNYVEEIRAVRRIRLGYIK	inactive
LFQLHMVLSF	inactive
LFRHLVNRLNLTSTAKYHGF	inactive
LFSQHYWIVSIFIASWIRYC	inactive
LFSSVC	inactive
LFSVMSKYSFRWLRDNFCHA	inactive
LFTDPCCTIGMSFRV	1.08 ± 0.075
LFVCRLMENLEGY	inactive
LFVYHCYIFSMRSRCMSHLY	inactive
LFYDCELGLTSVRWLGWGRN	inactive
LFYIWQSFQFRN	inactive
LGCTGALNNRCCERQANGRQ	inactive
LGEWYWYYFFRARR	inactive
LGKGICKSTWLQQCRGKSDF	inactive
LGPAVELGMT	inactive
LGPMAGRVSRYCNAARLTRC	-0.999 ± 2.4
LGQFAIAQYFNRYSRGPMLW	inactive
LGRCRWMDPHILLVLHVPCE	inactive
LGRLVG	inactive
LGRPYQHVWYIHSEVKGVEY	0.116 ± 0.28
LGRRLAMSV	0.692 ± 0.19

Substance	amyloid nucleation score
LGSLPGGETLHCLNRFQRLS	inactive
LGSMAINCNERCITWCHRFI	0.668 ± 0.25
LGTGSLNHST	inactive
LGVRCYNFIRFKYLSCLRLP	inactive
LGYIQEN	inactive
LHAFLEVSVRYTKSRST	inactive
LHALFVLSMGQA	inactive
LHEEGCATVLKVGCALTSEC	inactive
LHEENA	inactive
LHIHRFWQQPHTNAGRIPHP	inactive
LHKLVLMINDRPYLKPS	inactive
LHVDS	inactive
LHVSWGGLSGDTLFTRKVGV	inactive
LHVYTSILWWTYKVDVWLLS	inactive
LHYKCNDVHQNGMLELCYLN	inactive
LIACNVPVVEVRTSIGVKDI	inactive
LIADHIVRSSSLMSWFSPSR	inactive
LIEDVYLWLCYHRVGYLSAS	inactive
LIFFRVVSQLFKFSLRDLPL	inactive
LIGCVLGSLFLRDIFIYCLM	0.409 ± 0.67
LIHFV	inactive
LIILWRQ	1.27 ± 0.079
LINGTGDRMYTDLLL	inactive

Substance	amyloid nucleation score
LIPQRDNMGGGFRTFSLCYV	inactive
LIRMFISVMSYCMTVGLGMG	inactive
LIRTIEYLGRRISSQGCLHT	inactive
LISAYVGWDICLASML	inactive
LIVFWDGFMCT	inactive
LIVNSRSVFNITHFLNINYQ	2.1 ± 0.077
LIYLYWGLFVTSNSLETCR	1.4 ± 0.086
LIYVFIIFVMIFWVCCTMRS	0.166 ± 0.42
LKADRVVSFFWLCSFIFTSI	inactive
LKIFKCI	inactive
LKKVCDECRFSESPLVPEVA	1.06 ± 0.13
LKLTMSFMSQDLIIHVIDCS	inactive
LKMMSLLTSEATSMHHGVNW	inactive
LKNPARYYYVVQIFMVLSTA	inactive
LKRCRLQMAGYELSWDQGTM	inactive
LKRLSCFTGSPR	inactive
LKRNVNYVNLNVFRLFLK	inactive
LKRYDVQSSTGVNLTYGTYT	inactive
LKSSPFNYSVGIS	inactive
LKVVLYGVHQSCEYMRSRLS	inactive
LKYSSDQYLCRTFLGISGFG	inactive
LLAWRHEMLMFVPDNLSYGG	inactive
LLCLLQYLWPRRDSYYACLR	0.782 ± 0.18

Substance	amyloid nucleation score
LLCND	inactive
LLCRE	inactive
LLDSVDMLGFVMWVFGEVTN	inactive
LLESTSF	inactive
LLFENIQK	inactive
LLGRKRA	inactive
LLHHFFAVFDSARETKWDWD	0.247 ± 0.34
LLKLNS	inactive
LLLFRGAYRLQISAFCLCTE	inactive
LLLNMM	inactive
LLLRCANHFCYMDATDIYFR	inactive
LLLSEREGIYVVWVWCRWPV	inactive
LLNPCKRSCVNLRMHTQPSS	inactive
LLNYFRLMCYRSFL	inactive
LLRRNINMFSIQFFSRVTWL	-0.141 ± 0.96
LLRTL	inactive
LLSADFSFSSVEMKLARLGV	1.22 ± 0.18
LLSAMYNHPADMIAKLGKGG	inactive
LLSDICFCYYAREIRNSGCS	inactive
LLSIAVVDVPSRLSRCITLL	inactive
LLTMHWVREWSDGLYCKGKL	inactive

— the supplement of paper PMC12042874
